Source: patent publication US20200040086A1 (BERLIN CHEMIE, published 2020)

Assays:
[1] = target: T1, LNNLYKII; assay: peptide microarray of 8mer LY75 peptides, LY75_A1 at 1 µg/mL, anti-human IgG Alexa 647
T1 construct: 8mer of LY75 on the peptide microarray, chart Region 7
T1 peptide: LNNLYKII
Description: (§1) The peptide microarray analysis was performed by LC Sciences, Houston Tex., in brief the method comprised the following steps:—Contiguous 8mer peptides of LY75 protein having […] spanning residues 216 to 1666 of the full length LY75 protein were synthesized and immobilized on a microarray chip. The chip comprised three panels such that the experiment was performed in triplicate. The microarray was addressed with LY75_A1 to identify the peptides to which the antibody bound. The binding assay was performed under the following conditions:—
(§2) The microarray comprising the contiguous peptides in triplicate was washed with 1 mL of binding buffer at 4° C. for 20 min. It was then incubated with 1 μg/mL LY75_A1 in binding buffer (pH 7.0) at 4° C. for 2 hrs. The array was again washed with 0.5 mL of washing buffer at 4° C. for 30 min then incubated with 25 ng/mL anti-human IgG Alexa 647 conjugate in binding buffer (pH 7.0) at 4° C. for 1 hr. The array was again washed with 0.5 mL of washing buffer at 4° C. for 30 min.

[2] = target: T2, PIDDHFTY; assay: as above
T2 construct: 8mer of LY75 on the peptide microarray, chart Region 4
T2 peptide: PIDDHFTY
Description: as §1, §2

[3] = target: T3, YLNNLYKI; assay: as above
T3 construct: 8mer of LY75 on the peptide microarray, chart Region 7
T3 peptide: YLNNLYKI
Description: as §1, §2

[4] = target: T4, YSNFHPLL; assay: as above
T4 construct: 8mer of LY75 on the peptide microarray, chart Region 5
T4 peptide: YSNFHPLL
Description: as §1, §2

[5] = target: T5, VSLCQKYS; assay: as above
T5 construct: 8mer of LY75 on the peptide microarray, chart Region 6
T5 peptide: VSLCQKYS
Description: as §1, §2

[6] = target: T6, DHFTYSRY; assay: as above
T6 construct: 8mer of LY75 on the peptide microarray, chart Region 4
T6 peptide: DHFTYSRY
Description: as §1, §2

[7] = target: T7, RWIQYKGH; assay: as above
T7 construct: 8mer of LY75 on the peptide microarray, chart Region 10
T7 peptide: RWIQYKGH
Description: as §1, §2

[8] = target: T8, WHRFPVTF; assay: as above
T8 construct: 8mer of LY75 on the peptide microarray, chart Region 4
T8 peptide: WHRFPVTF
Description: as §1, §2

[9] = target: T9, YSRYPWHR; assay: as above
T9 construct: 8mer of LY75 on the peptide microarray, chart Region 4
T9 peptide: YSRYPWHR
Description: as §1, §2

[10] = target: T10, SERHFVSL; assay: as above
T10 construct: 8mer of LY75 on the peptide microarray, chart Region 6
T10 peptide: SERHFVSL
Description: as §1, §2

[11] = target: T11, SCSERHFV; assay: as above
T11 construct: 8mer of LY75 on the peptide microarray, chart Region 6
T11 peptide: SCSERHFV
Description: as §1, §2

[12] = target: T12, KGHCYKSD; assay: as above
T12 construct: 8mer of LY75 on the peptide microarray, chart Region 10
T12 peptide: KGHCYKSD
Description: as §1, §2

[13] = target: T13, VYFHQHSI; assay: as above
T13 construct: 8mer of LY75 on the peptide microarray, chart Region 8
T13 peptide: VYFHQHSI
Description: as §1, §2

[14] = target: T14, HRFPVTFG; assay: as above
T14 construct: 8mer of LY75 on the peptide microarray, chart Region 4
T14 peptide: HRFPVTFG
Description: as §1, §2

[15] = target: T15, YFHQHSIL; assay: as above
T15 construct: 8mer of LY75 on the peptide microarray, chart Region 8
T15 peptide: YFHQHSIL
Description: as §1, §2

[16] = target: T16, SCYKVFHA; assay: as above
T16 construct: 8mer of LY75 on the peptide microarray, chart Region 2
T16 peptide: SCYKVFHA
Description: as §1, §2

[17] = target: T17, RYPWHRFP; assay: as above
T17 construct: 8mer of LY75 on the peptide microarray, chart Region 4
T17 peptide: RYPWHRFP
Description: as §1, §2

[18] = target: T18, KLSRLTYS; assay: as above
T18 construct: 8mer of LY75 on the peptide microarray, chart Region 9
T18 peptide: KLSRLTYS
Description: as §1, §2

[19] = target: T19, FTSCSERH; assay: as above
T19 construct: 8mer of LY75 on the peptide microarray, chart Region 6
T19 peptide: FTSCSERH
Description: as §1, §2

[20] = target: T20, EVKDCRSF; assay: as above
T20 construct: 8mer of LY75 on the peptide microarray, chart Region 1
T20 peptide: EVKDCRSF
Description: as §1, §2

[21] = target: T21, YKSDQALH; assay: as above
T21 construct: 8mer of LY75 on the peptide microarray, chart Region 10
T21 peptide: YKSDQALH
Description: as §1, §2

[22] = target: T22, YPWHRFPV; assay: as above
T22 construct: 8mer of LY75 on the peptide microarray, chart Region 4
T22 peptide: YPWHRFPV
Description: as §1, §2

[23] = target: T23, LY75 tryptic peptide GWHFYDDR (765-772) (human); assay: peptide microarray of 8mer LY75 peptides (array peptide with the letters of m17), LY75_A1 at 1 µg/mL, anti-human IgG Alexa 647
T23 construct: Tryptic peptide of recombinant LY75 identified by mass spectrometry after pull down
T23 peptide: GWHFYDDR
Description: as §1, §2

Measured: binding result

B1: LY75_A1 (antibody, V domains shown)
VH: EVQLVESGGGLVKPGGSLRLSCAASGFTYSNAWMSWVRQAPGKGLEWVGRIKSKTDGGTTDYAAPVQGRFTISRDDSKNTLYLQMNSLKTEDTAVYYCTIFGVVSFDYWGQGTLVTVSS
VL: DVQMTQSPSSLSASVGDRVTITCRASQSISDYLSWYQQRPGKAPNLLIYAASNLKTGVPSRFSGSGSGTDFTLTISTLQPEDFATYYCQQSYRSPWTFGQGTKVEIKR
notes: detected with anti-human IgG in the microarray; also called antibody LY75_A1; LY75_A1 monoclonal antibody
binds: [1] | [2] | [3] | [4] | [5] | [6] | [7] | [8] | [9] | [10] | [11] | [12] | [13] | [14] | [15] | [16] | [17] | [18] | [19] | [20] | [21] | [22] | [23]
